Reference: PMC12824264, “Endoglin as a BMP9 Co-Receptor in Vascular Endothelial Cells: Prodomain Displacement and TGFBRII Recruitment” (Nature communications, 2025)

B1: monomeric soluble endoglin (full-length ENG extracellular domain), sENG(M) (domain or fragment, human, UniProt P17813 26-586, looked up)
chain: ETVHCDLQPVGPERGEVTYTTSQVSKGCVAQAPNAILEVHVLFLEFPTGPSQLELTLQASKQNGTWPREVLLVLSVNSSVFLHLQALGIPLHLAYNSSLVTFQEPPGVNTTELPSFPKTQILEWAAERGPITSAAELNDPQSILLRLGQAQGSLSFCMLEASQDMGRTLEWRPRTPALVRGCHLEGVAGHKEAHILRVLPGHSAGPRTVTVKVELSCAPGDLDAVLILQGPPYVSWLIDANHNMQIWTTGEYSFKIFPEKNIRGFKLPDTPQGLLGEARMLNASIVASFVELPLASIVSLHASSCGGRLQTSPAPIQTTPPKDTCSPELLMSLIQTKCADDAMTLVLKKELVAHLKCTITGLTFWDPSCEAEDRGDKFVLRSAYSSCGMQVSASMISNEAVVNILSSSSPQRKKVHCLNMDSLSFQLGLYLSPHFLQASNTIEPGQQSFVQVRVSPSVSEFLLQLDSCHLDLGPEGGTVELIQGRAAKGNCVSLLSPSPEGDPRFSFLLHFYTVPIPKTGTLSCTVALRPKTGSQDQEVHRTVFMRLNIISPDLSGCTSKG
notes: signal peptide in the construct; Expressed as a mixture of dimer and monomer; also called monomeric sENG; sENG-His; source: HEK EBNA, transfected (pCEP4), purified from conditioned medium (HisTrap excel, HiTrap Q HP, Superdex 200)
B2: dimeric soluble endoglin (full-length ENG extracellular domain), sENG(D) (domain or fragment, human, UniProt P17813 26-586, looked up)
chain: ETVHCDLQPVGPERGEVTYTTSQVSKGCVAQAPNAILEVHVLFLEFPTGPSQLELTLQASKQNGTWPREVLLVLSVNSSVFLHLQALGIPLHLAYNSSLVTFQEPPGVNTTELPSFPKTQILEWAAERGPITSAAELNDPQSILLRLGQAQGSLSFCMLEASQDMGRTLEWRPRTPALVRGCHLEGVAGHKEAHILRVLPGHSAGPRTVTVKVELSCAPGDLDAVLILQGPPYVSWLIDANHNMQIWTTGEYSFKIFPEKNIRGFKLPDTPQGLLGEARMLNASIVASFVELPLASIVSLHASSCGGRLQTSPAPIQTTPPKDTCSPELLMSLIQTKCADDAMTLVLKKELVAHLKCTITGLTFWDPSCEAEDRGDKFVLRSAYSSCGMQVSASMISNEAVVNILSSSSPQRKKVHCLNMDSLSFQLGLYLSPHFLQASNTIEPGQQSFVQVRVSPSVSEFLLQLDSCHLDLGPEGGTVELIQGRAAKGNCVSLLSPSPEGDPRFSFLLHFYTVPIPKTGTLSCTVALRPKTGSQDQEVHRTVFMRLNIISPDLSGCTSKG
notes: signal peptide in the construct; Same construct as m1; It stays a dimer on non-reducing SDS-PAGE; also called dimeric sENG; sENG-His; source: HEK EBNA, transfected (pCEP4), purified from conditioned medium (HisTrap excel, HiTrap Q HP, Superdex 200)
B3: BMP10 growth factor domain (GFD) dimer (ligand, human, UniProt O95393 317-424, looked up)
chain: NAKGNYCKRTPLYIDFKEIGWDSWIIAPPGYEAYECRGVCNYPLAEHLTPTKHAIIQALVHLKNSQKASKACCVPTKLEPISILYLDKGVVTYKFKYEGMAVSECGCR
notes: growth factor domain (GFD) of BMP10, the cut product of the proprotein; One molecule is used for the bought GFD and for the GFD freed from pro:BMP10; also called BMP10 GFD; source: bought: R&D Systems (BMP10 GFD); in the prodomain displacement assays released from pro:BMP10 made in HEK EBNA (FURIN co-transfected), purified
B4: BMP9 growth factor domain (GFD) dimer (ligand, human, UniProt Q9UK05 320-429, looked up)
chain: SAGAGSHCQKTSLRVNFEDIGWDSWIIAPKEYEAYECKGGCFFPLADDVTPTKHAIVQTLVHLKFPTKVGKACCVPTKLSPISVLYKDDMGVPTLKYHYEGMSVAECGCR
notes: growth factor domain (GFD) of BMP9, the cut product of the proprotein; also called BMP9 GFD; source: bought: R&D Systems (BMP9 GFD); in the prodomain displacement assays released from pro:BMP9 made in HEK EBNA, purified

Tests used:
Details in all cases: both partners purified
[1] = target: B4; assay: SEC; S200 10/300 gel filtration; sENG(M) at 6x or sENG(D) at 3x molar excess premixed with pro:BMP9 or pro:BMP10 for 30 min; fractions on non-reducing SDS-PAGE
[2] = target: B3; assay: as above
[3] = target: B4; assay: cross-linking; sENG(M) or sENG(D) with BMP9 or BMP10; crosslinker in PBS pH 7.4-8.0, 45 min at room temperature, quenched with 40 mM Tris; non-reducing SDS-PAGE
[4] = target: B3; assay: as above
[5] = target: B1; assay: SEC; analytical gel filtration; pro:BMP9 or pro:BMP10 pre-mixed with 0.3-fold sENG(M) or sENG(D)
[6] = target: B2; assay: as above
[7] = target: B2; assay: SEC; S200 10/300 gel filtration; sENG(M) at 6x or sENG(D) at 3x molar excess premixed with pro:BMP9 or pro:BMP10 for 30 min; fractions on non-reducing SDS-PAGE
[8] = target: B1; assay: native gel or EMSA; pro:BMP9 or pro:BMP10 pre-mixed with sENG(D), sENG(M), BMPRII ECD or ActRIIB ECD at stated molar ratios (from 0.3:1) in TBS, 8 ul, 30 min at room temperature; 10% native PAGE at 4 C; bands cut out and re-run on non-reducing SDS-PAGE

B1
stoichiometry N [1]: 1 sENG(M) per GFD dimer | stoichiometry N [2]: 1 sENG(M) per GFD dimer

B2
stoichiometry N [3]: 1 sENG(D) per GFD dimer | stoichiometry N [4]: 1 sENG(D) per GFD dimer

B3
binding result [5]: binds | binding result [6]: binds

B4
binding result [7]: binds | binding result [8]: binds
